Data from the supplement of paper PMC9732359.
± gives the uncertainty stated by the source.

Assay: protein stability index of a GFP-peptide fusion (yeast GPS) (PSI 1-4); higher = more stable; sorted into four equal gates, so the index is relative within each strain
Summary of the method: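 Each library plasmid carries Cherry plus GFP with a tiled 17-residue yeast protein peptide fused downstream, and the pooled library was carried in yeast. Mid-log cultures in leucine-free medium were sorted into four equal gates by GFP/Cherry ratio. Reads from Illumina sequencing of PCR-amplified plasmids from each gate were assigned to strains by barcodes. Per peptide, the protein stability index was computed as the summed products of gate read frequency and gate number.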

Sequence	protein stability index (doa10∆)	protein stability index (pdr5∆)	protein stability index (san1∆)	protein stability index (ubr1∆)
AHVFVGTCNGDITTSIM [RPN1]	2.72 ± 0.048	2.78 ± 0.044	2.63 ± 0.047	2.62 ± 0.053
AIACYSGYNQEDSMIMN [RPB2]	2.65 ± 0.084	1.75 ± 0.072	2.67 ± 0.098	2.39 ± 0.12
AIANTLLYLRLKNIYVS [PRP8]	1.38 ± 0.048	1.53 ± 0.05	1.38 ± 0.084	1.18 ± 0.045
AICRYANVIKALAFCEI [RRP4]	1.42 ± 0.069	2.04 ± 0.099	1.66 ± 0.18	2.22 ± 0.072
AIDYEPEYEKAMQYVCG [SMC1]			2.8 ± 0.13	2.44 ± 0.11
AIIGLKSGTSHDAIFSI [SNF12]	2.56 ± 0.11	2.65 ± 0.082	2.5 ± 0.069	2.96 ± 0.17
AINIMNRSNDALIKFME [FAS2]	3.19 ± 0.15	3.45 ± 0.15	3.26 ± 0.093	3.38 ± 0.15
AIPLQQVLSQSADPSLL [SWI1]	2.86 ± 0.22	2.5 ± 0.13		3.06 ± 0.17
AIPSRMTVAHLIECLLS [RPB2]	1.39 ± 0.098	1.85 ± 0.094	1.39 ± 0.25	1.67 ± 0.09
AIRRDARYNWICDPVHK [RPL15A]	2.71 ± 0.1	3.37 ± 0.12	3.25 ± 0.11	3.18 ± 0.076
AIRRDARYNWICNPVHK [RPL15B]	3.03 ± 0.16	3.38 ± 0.13	3.37 ± 0.13	3.21 ± 0.081
AISGKKTTYYYYNEEGI [RPC82]	2.61 ± 0.067	2.97 ± 0.14	2.8 ± 0.056	3.06 ± 0.076
AISTDKINPFGFEQVKI [RRI2]	2.75 ± 0.056	2.94 ± 0.05	2.72 ± 0.061	2.86 ± 0.061
AITISNSIDINYKGLPK [SMC1]	2.48 ± 0.063	2.83 ± 0.054	2.54 ± 0.073	2.98 ± 0.039
AKGCEVVVSGKLRAARA [RPS3]	3.15 ± 0.14	3.24 ± 0.22	3.42 ± 0.14	3.25 ± 0.28
AKGLVAYHQKYVDEQSK [RPS16A]	2.03 ± 0.085	2.12 ± 0.056	2.52 ± 0.089	1.11 ± 0.034
AKHAVSEGTRAVTKYSS [HTB1]	3 ± 0.08	3.21 ± 0.11	3.41 ± 0.075	3.12 ± 0.09
AKIYPGRGTLFVRGDSK [RPL24A]	1.1 ± 0.075	1.77 ± 0.12	1.97 ± 0.15	2.04 ± 0.085
AKKTSTSTDGKKRSKAR [HTB1]	3.2 ± 0.25	3.12 ± 0.17		
AKNEDDPAHSLNYTVIN [AAR2]	2.93 ± 0.2	3.05 ± 0.18	2.68 ± 0.11	2.43 ± 0.18
AKQALDLYHFALNYENE [SNF2]	2.47 ± 0.098	2.83 ± 0.084	2.69 ± 0.095	1.83 ± 0.1
AKSISTSAKEPSENDVF [RPO31]	2.99 ± 0.072	3.06 ± 0.069	2.56 ± 0.083	3.2 ± 0.09
AKSMAFLKEVLSDLSSP [YML103C/NUP188]	2.97 ± 0.079	3.1 ± 0.079	2.79 ± 0.11	2.95 ± 0.065
AKSTVETFISSMTATAD [RIP1]	1.89 ± 0.073	2.13 ± 0.077	2.93 ± 0.061	1.48 ± 0.05
AKVNRPAKIVNFEKPKN [RPN5]	2.93 ± 0.069	3.12 ± 0.069	2.89 ± 0.056	3.12 ± 0.054

Sequence	protein stability index (doa10∆)	protein stability index (pdr5∆)	protein stability index (san1∆)	protein stability index (ubr1∆)
AKWAPTLRTISFKGSPN [SNF2]	3.02 ± 0.16	3.11 ± 0.27	2.77 ± 0.15	2.51 ± 0.14
ALALYVDAYRRLENKLS [SRP68]	1.78 ± 0.2	1.42 ± 0.11		1.52 ± 0.1
ALASIQTFNFDSFENYF [RPN12]	2.65 ± 0.048	2.77 ± 0.069	2.51 ± 0.096	2.82 ± 0.054
ALDTVTNVLNFIKLQKI [FAS1]	2.76 ± 0.069	2.04 ± 0.067	2.14 ± 0.13	2.15 ± 0.055
ALEEAKLSDNISICMIL [YDL116W/NUP84]	2.87 ± 0.076	3.02 ± 0.073	3.04 ± 0.06	3.21 ± 0.043
ALEFVSLLLSSVKESTG [SRB4]	1.26 ± 0.046	1.61 ± 0.043	1.4 ± 0.11	1.24 ± 0.048
ALEYIGAKVKTMRRQKL [RET1]	2.1 ± 0.069	2.48 ± 0.097	2.22 ± 0.089	2.19 ± 0.066
ALIDAGISMFDYISGIS [SKI6]	1.48 ± 0.064	1.5 ± 0.046	2.3 ± 0.099	1.68 ± 0.037
ALIDTEFANFELKDICS [YML103C/NUP188]	2.12 ± 0.063	2.49 ± 0.06	2.65 ± 0.063	2.16 ± 0.037
ALIENWAADSVSSRVRG [FAS1]	3.45 ± 0.12	3.1 ± 0.14	2.84 ± 0.082	3.34 ± 0.075
ALPNIENDIIKLSDSKT [BRR2]	2.79 ± 0.054	3.16 ± 0.055	2.82 ± 0.044	3.23 ± 0.054
ALQNLSQLPITPMTRIS [YGL172W/NUP49]	2.31 ± 0.13	1.95 ± 0.12	1.66 ± 0.21	1.92 ± 0.065
ALRGMFKDRFKDEPVQN [FAS2]	3.56 ± 0.087	3.43 ± 0.085	3.35 ± 0.069	3.58 ± 0.11
ALSLHREILCYSKDAKE [FAS2]	1.78 ± 0.028	1.76 ± 0.027	1.85 ± 0.044	1.82 ± 0.021
ALSQSSLLKTKLKQQSS [RRI1]	2.13 ± 0.037	2.51 ± 0.035	2.22 ± 0.048	2.26 ± 0.035
ALTKFEASQVTEKQRKK [RPL35A]	3.2 ± 0.27	2.57 ± 0.1	3.1 ± 0.064	3.17 ± 0.061
ALTRGEALLVVLVSSVT [RPS12]		3.63 ± 0.26	3.52 ± 0.24	3.29 ± 0.26
ALYIAMMTRRVVMAMYN [RET1]	3.11 ± 0.28			
AMFFGNYGSSLQWHAMI [AAR2]	2.41 ± 0.093	1.8 ± 0.085	1.44 ± 0.12	2.15 ± 0.071
AMICEAKGLIENIFEGE [YJR042W/NUP85]	2.94 ± 0.13	2.93 ± 0.086	2.5 ± 0.1	2.81 ± 0.064
AMLINLILRDFLNNGEV [RPN3]	2.67 ± 0.086	2.56 ± 0.076	2.59 ± 0.066	2.84 ± 0.076
AMSLYHSPFPFNRTKGK [PRP8]	2.11 ± 0.04	2.08 ± 0.047	1.65 ± 0.07	1.98 ± 0.03
ANATAAESDVAKQLAAL [RPL16A]	3 ± 0.043	2.84 ± 0.061	3.19 ± 0.046	3.23 ± 0.05
ANGIINVKEITEKLKIS [SMC3]	2.81 ± 0.12	2.64 ± 0.099	2.75 ± 0.14	2.9 ± 0.06
ANLEDIIFEIEKPLVVP [RRP6]	2 ± 0.085	2.79 ± 0.094	2.62 ± 0.08	2.03 ± 0.11
